Measurements from the nanobody polyreactivity screen of Harvey et al. (2022).

Assay: yeast display, Sf9 membrane polyspecificity reagent, FACS + sequencing; frameworks hold sequencing errors
Summary of the method: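 Polyreactivity labels are assigned by the sorting gate from which each nanobody was recovered. The gates were low and high (top ~1%), set on anti-HA fluorescence for expression and streptavidin fluorescence for reagent binding. Before sorting, galactose-induced (36–48 hours) yeast display cells were stained for 1 hour at 4 °C with 10% biotinylated, detergent-solubilized Sf9 membrane reagent.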

Sequence | polyreactivity (PSR sort gate)
QVQLVESGGGLVQAGGSLRLSCAASGRTFYFYAMGWSRQSPGKERELVADIRGISGSTYYADSVKGRFTISRDNAKNTVYLQMNSLKPEDTAVYYCAADPYLGRAWRGRGYYWGQGTQVTVSS | high polyreactivity
QVQLVESGGGLVQAGGSLRLSCAASGRTFYFYAMGWYRQAPGKERELVAAITVRGGSTYYADSVKGRFTISRYNAKNTVYLQMNSLKPEDTAVYYCAADPYPYYGAYDYWGQGTQVTVSS | high polyreactivity
QVQLVESGGGLVQAGGSLRLSCAASGRTFYFYAMGWYRQAPGKERELVASISWSGGRTYYADSVKGRFTISRDNAKNTVYLQMNSLKPEVTSVYYSAAALWTGYSWGQATQVTVSS | low polyreactivity
QVQLVESGGGLVQAGGSLRLSCAASGRTFYGNAMGWYRQAPGKERELVAAISWSGCGTYYADSVKGRFTISRDNAKNTVYLQMNSLKPEDTAVYYCARTLFGRSANRYGYWGQGTQVTVSS | high polyreactivity
QVQLVESGGGLVQAGGSLRLSCAASGRTFYGNAMGWYRQAPGKERELVAGITRGGSTYYADSVKGRFTISRDNAKNTVYLQMNSLKPEDTAVYYCAATRYYSWGSRGGYWGQGTQVTVSS | high polyreactivity
QVQLVESGGGLVQAGGSLRLSCAASGRTFYGNGMGWYRQAPGKRELVAAISYSGASTYYADSVKGRFTISRDNAKNTVCLLMNSLKPEDTAVYYCAAQPSVYCSLFTRASEDYWGQGTQVTVSS | high polyreactivity
QVQLVESGGGLVQAGGSLRLSCAASGRTFYGNVMGWYRQPPGKERELVATISFSAGSTYYADSVKGRFTISRDNAKNTVYLQMNSLKPEDTAVYYCNADHTDYATGGGNYWGQGTQVTVSS | low polyreactivity
QVQLVESGGGLVQAGGSLRLSCAASGRTFYGYAIGRYIQAPGNERELVAAISRRGGSTNYADSVKGRFTISRDNAKNTVFLQMNSLKPEDTAVYYCNANYYRTHYDYWGQGTQVTVSS | high polyreactivity
QVQLVESGGGLVQAGGSLRLSCAASGRTFYGYAMGWYRQAPGKERELVAAISFSGGRTYYADSVKGRFTISRDNAKNTVYLQMNSLKPEDTAVYYCAAVPRGWFSYPSGYDYWGQGTQVTVSS | high polyreactivity
QVQLVESGGGLVQAGGSLRLSCAASGRTFYGYAMGWYRQAPGKERELVAAITQRGVSTYADSVKGRFTISRDNAKNTVYLQMNSLKPEDTAVYYCAAEYYAYPYGDDYDYWGQGTQVTVSS | low polyreactivity
QVQLVESGGGLVQAGGSLRLSCAASGRTFYGYAMGWYRQAPGKERELVAAITSSGGSTYYADSVKGRFTISRDNAKNTVYLQMNSLKPEDTAVYYCAKTSRYLTGGGDYWGQGTQVTVSS | high polyreactivity
QVQLVESGGGLVQAGGSLRLSCAASGRTFYGYAMGWYRQAPGKERELVASISRDASTNYADSVKGRFTISRDNAKNTVYLQMNSLKPEDTAVYYCAADIWYYRYPIYYYSYDYWGLGTQVTVSS | low polyreactivity
QVQLVESGGGLVQAGGSLRLSCAASGRTFYGYPMGWYRQAPGKERELVAAISWSGGSTYYADSVKGRFTISRDNAKNTVYLQMNSLKPEDTAVYYCAAYTYSFRANHDYWGQGTQVTVSS | high polyreactivity
QVQLVESGGGLVQAGGSLRLSCAASGRTFYGYTMGWYRPAPGKERELVAAITYSGDSTYYADSVKGRFTISRDNAKNTVYLQLNSLKPEDTAVYYCNAVGRYPVYWWGYYYWGQGTQVTVSS | high polyreactivity
QVQLVESGGGLVQAGGSLRLSCAASGRTFYHNAMGWYRPAPGKEWELVASIRWSGGSTYADSVKGRFTISRDNAKNTVYLQMNSLKPEDTAGYYCAKVGKSLYPVDYYSWGQGTQVTVSS | high polyreactivity
QVQLVESGGGLVQAGGSLRLSCAASGRTFYHYAIGWSRQAPGKEREMVAAITRRGGSTYYADSVKGRFTISRDNAKNTVYLQMNRLKPEDTAVYYCAVDGVTSRRYVYEYWGQGTQVTVSS | high polyreactivity
QVQLVESGGGLVQAGGSLRLSCAASGRTFYHYAMGWYRQAPGKESELVAAIDWSTASTYYADSVKGRFTISRDNAKNTVYLQMNSLKPEDTAVYYCATDTAILINFVLYDYWGQGTQVTVSS | low polyreactivity
QVQLVESGGGLVQAGGSLRLSCAASGRTFYINAMGWYRQAPGKERELVAGITRGGSTNYADSVKGRFTISRDNAKNTVYLQMNSLKPEDTAVYYCNAARAERWGRGSYPEFDYWGQGTQVTVSS | high polyreactivity
QVQLVESGGGLVQAGGSLRLSCAASGRTFYINAMGWYRQAPGKERELVATISRSGGDTYYADSVKGRFTISRDNAKNTVYLQMNSLKPEDTAVYYCNARQYYYRSGAYASRYLYNYWGQGTQVTVSS | high polyreactivity
QVQLVESGGGLVQAGGSLRLSCAASGRTFYIYALGWYRQAPGKERELVAAISWGSGSTYYADSVKGRFTISRDNAKNTVYLQMNSLKPEDTAVYYCAAEYAYPSEWTYDYWGQGTQVTVSS | low polyreactivity
QVQLVESGGGLVQAGGSLRLSCAASGRTFYIYAMGWYRQAPGKERALDAAITYGGGRTFYADSVKGRFTISRDNAKNTVYLQMNSLKPEDTAVYYCAATVRGKRSTYDYWGQGTQVTVSS | high polyreactivity
QVQLVESGGGLVQAGGSLRLSCAASGRTFYIYAMGWYRQAPGKERELVAAISWSGGTTYYADSVKGRFTISRDHAKNTVYLQMNSLKPEDTAVYYCNVYPAYNYFDYDYWGQGTQVTVSS | high polyreactivity

Sequence | polyreactivity (PSR sort gate)
QVQLVESGGGLVQAGGSLRLSCAASGRTFYIYAMGWYRQAPGKLRQLVAVIRGSGGSTYYADSVKGRFTISRDNAKYTVYLQMNSQKPEDTAVYYCAARRYQYVWSLYNYWGQGTQVTVSS | high polyreactivity
QVQLVESGGGLVQAGGSLRLSCAASGRTFYKNTMGWYRQAPGKERELVAPITRRGGTPYYADSVKGRFTISRDNAKNTVYLQMNSLQPEDTAVYYCAVLTWYFLLQYGYYQEGDYWGQGTQVTVSS | low polyreactivity
QVQLVESGGGLVQAGGSLRLSCAASGRTFYKYAMGWYRQAPGKEREFVADISSRGGSTYYADSVKGRFTISRDNAKNTVYLQMNSLKPEDTAVYYCAARPRPRSANGMYYWGQGTQVTVSS | high polyreactivity
QVQLVESGGGLVQAGGSLRLSCAASGRTFYKYAMGWYRQAPGKERELVAAISRRGGSTYYADSVKGRFTISRDNAKNTVYLQMNSLKPEDTAVYDCAADPDTKGFYVYRLVRVRYGYWGQGTQVTVSS | high polyreactivity
QVQLVESGGGLVQAGGSLRLSCAASGRTFYKYAMGWYRQAPGKERELVAAITSGGGRTYYADSVKGRFTISRDNAKNTVYLQMNSLIPEDTAVYYCNAVLPLAKYEYDSWGQGTQVTVSS | high polyreactivity
QVQLVESGGGLVQAGGSLRLSCAASGRTFYKYGMGWYRQAPGKERELVARINSNGGSTYYADSVKGRFTISRDNAKNTVYLQMNSLKPEDTAVYYCARSYVRSYGYYYWGKGTQVTVSS | low polyreactivity
QVQLVESGGGLVQAGGSLRLSCAASGRTFYKYVMGWYRQAPGKERELVAAITRSGGGTYYADSVKGRFTISRDNAKNTVYLQMNSLKPEDTAVYYCAVSGRSYYRSDYWGQGTQVTVSS | high polyreactivity
QVQLVESGGGLVQAGGSLRLSCAASGRTFYLYAMGWYRQAPGKEREFVAAISWSTGSTYYADSVKGRFTISRDNAKNTVYLQMNSLKPEDTAVYYCAASTFTGYPKMYYWGQGTQVTVSS | high polyreactivity
QVQLVESGGGLVQAGGSLRLSCAASGRTFYLYAMGWYRQAPGKERELVAAITFNGGSTYYADSVKGRFTISRDNAKNTVYLQMNSLKPEDTAVYYCAARLSKRSGYYYWGQGTQVTVSS | high polyreactivity
QVQLVESGGGLVQAGGSLRLSCAASGRTFYNNAMGWDRQAPGKERELVATINNRGGPTYYADSVKGRFTISRDNAQNTVYFQMNSLKPEDTAVYYCAASGWHGYNYWGQGTQVTVSS | high polyreactivity
QVQLVESGGGLVQAGGSLRLSCAASGRTFYPNAMGWYRQAPGKERELVAAITTDGSTYYADSVKGRFTISRDNAKNTVYLQMNSLKPEDTAVYYCAARGFWWPYTYYYWGHGTQVTVSS | high polyreactivity
QVQLVESGGGLVQAGGSLRLSCAASGRTFYPNAMGWYRQAPGKERELVAAITWRSGSTYYADSVKGRFTISRDNAKNTVYLQMNSLKPEDTAVYYCNADSDYPYYPGKFDYWGQGTQVTVSS | low polyreactivity
QVQLVESGGGLVQAGGSLRLSCAASGRTFYPNTMGWYRQAPGKERELVATITRSGGTTYADSVKGRFTISRDNAKNTVYLQMHSLKPEDTAVYYCNADQRRYYWLVSQRYDYWGQGTQVTVSS | low polyreactivity
QVQLVESGGGLVQAGGSLRLSCAASGRTFYPYAMGWYRQAPGKERELVAAINRRGGSTYYADSVKGRFTISRDNAKNTVYLQMNSLKPEDTAVYYCAAKTTTPYRYIYYYWGQGTQVTVSS | high polyreactivity
QVQLVESGGGLVQAGGSLRLSCAASGRTFYPYAMGWYRQAPGKERELVAAITWSGGSTYYADSVKGRFTISRDNAKNTVYLQMNSLKPEDTAVYYCNATYEASFYYEYDYWGQGTQVTVSS | low polyreactivity
QVQLVESGGGLVQAGGSLRLSCAASGRTFYRNAMGWSRQAPGKEREFVAVISVSGGSTYYADSVKGRFTISRDNAKNTVYLQMISLKPEDTAVYYCAKRGPVRQTANDYWGPGTQVTVSS | low polyreactivity
QVQLVESGGGLVQAGGSLRLSCAASGRTFYRNAMGWYRQAPGKEREFVASIDWSGGSTYYADSVKGRFTISRDNAKNTVYLQMNSLKPEDTAVYYCAAELDYFPGYDYWGQGTQVTVSS | low polyreactivity
QVQLVESGGGLVQAGGSLRLSCAASGRTFYRNAMGWYRQAPGKERELVAAITWSGVSTYYADSVKGRFTISRDNAKNTVYVQMNSQKPEDTAVYYCARGRVLRNGHYFQLRNYDYWGQGTQVTVSS | high polyreactivity
QVQLVESGGGLVQAGGSLRLSCAASGRTFYRNAMGWYRQAPGKERELVASIRRNGGSTYYADSVKGRFTISRDNAKNTVYLQMNSLKPEDTAVYYCAAKFYWRGQSFRSGNFYWGQGTQVTVSS | high polyreactivity
QVQLVESGGGLVQAGGSLRLSCAASGRTFYRNVMGWYRQEPGKEREMVASIRTSGGSTYYADSVKGRFTISRDNAKNTVYLQMNSQKPEDTAVYYCATRVFVYPYRRYSHYDYWGLGTQVTVSS | high polyreactivity
QVQLVESGGGLVQAGGSLRLSCAASGRTFYRYAMGWYRQAAGTERELVAAISRSGGSTYYADSVKGRFTISRDHAKYTVYLQMNSLKPQDTAVYYCAAGYDGYKQGGGGYWGQGTQVTVSS | high polyreactivity
